Among the data in the supplement of paper PMC10567573 are protein stability index values, retold here.

A short description of the data set: protein stability index of a GFP-peptide fusion (GPS, HEK-293T) (PSI 1-6); higher = more stable.
The mark [1] stands for this setting: treatment: DMSO, c terminus: a fixed tail appended.
[2] abbreviates: treatment: MLN4924 1 uM, 8 h, c terminus: a fixed tail appended.

± gives the standard deviation.
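Note: 24-mer peptide tiles fused after GFP, lentivirally expressed, FACS-sorted into six equal bins by GFP/DsRed ratio, decoded by Illumina sequencing, PSI is the read-weighted mean bin number.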

Consider IDYKTTTILLDGRRVKLQLWDTSG [RAB40B], for which the protein stability index worked out at 2.42 ± 0.12 under setting [1] and 2.56 ± 0.24 under setting [2].

As for LGSDDEEQEDPADYCKGGYHPVKI [SRPK2], the protein stability index is, setting by setting: under setting [1], 4.81 ± 0.31; under setting [2], 4.67 ± 0.31.

For SMRLLESKKGLSFFAFEHSEEYQQ [TCF25], the protein stability index by setting is: under setting [1], 3.35 ± 0.12; under setting [2], 3.3 ± 0.16.

In the case of VTDCKHTEDVGVVCSDKRIPGFKF [LOXL2], the protein stability index is 3.61 ± 0.35 under setting [1] and 3.77 ± 0.16 under setting [2].

In turn, DLERQNQEYQVLLDVRARLECEIN [KRT33B] yielded a protein stability index under setting [1] of 3.39 ± 0.29 and a protein stability index under setting [2] of 3.58 ± 0.22.

With VGNYRLKEYEKALKYVRGLLQTEP [FIS1], the protein stability index runs as follows: under setting [1], 2.19 ± 0.22; under setting [2], 2.5 ± 0.32.

For the sequence DMKSLKQVLEMKNQQIHEQEKKIL [MTUS2], the protein stability index is 4.23 ± 0.046 under setting [1] and 4.31 ± 0.33 under setting [2].

On to TQRRTSMGGTQQQFVEGVRMEEIV [CTNNB1], for which the protein stability index was found to be 4.05 ± 0.47 under setting [1] and 4.26 ± 0.37 under setting [2].

With RTDVGITHQHWQQFEPQLTLWDVF [RSAD1], the protein stability index is, setting by setting: under setting [1], 2.25 ± 0.4; under setting [2], 2.38 ± 0.39.

As for HYRASEEEPEYGEEIKGYPGVQAP [CHGB], the protein stability index by setting is: under setting [1], 4.64 ± 0.23; under setting [2], 5.04 ± 0.36.

In the case of GGEAAHHTRSPYSTFYPPYHSPEL [NEUROD6], the protein stability index is 3.38 ± 0.2 under setting [1] and 3.58 ± 0.12 under setting [2].

As to GKKYNWSCDDLMGGGGLHSVGTYI [GFOD1], the protein stability index is 2.13 ± 0.35 under setting [1] and 2.33 ± 0.29 under setting [2].

Turning to RFSHMSERDLQELSIQVEEERRAR [ZMAT5], the protein stability index reads like this: under setting [1], 5.51 ± 0.56; under setting [2], 4.97 ± 0.87.

As to GNDTSPSEGTNLNAPNSLGVSALC [HNF4A], the protein stability index is, setting by setting: under setting [1], 4.65 ± 0.18; under setting [2], 4.76 ± 0.15.

Consider ICTQKCALNWTDIPVAMEHQPPYI [VPS39], for which the protein stability index reads like this: under setting [1], 2.25 ± 0.48; under setting [2], 2.12 ± 0.11.

As to RNERSIQEKLQVLMAEGLLPAVKV [SMG5], the protein stability index runs as follows: under setting [1], 2.69 ± 0.26; under setting [2], 2.6 ± 0.22.

Regarding CLAGCEGAHEQVDFKDFYPAIADL [P3H4], the protein stability index is, setting by setting: under setting [1], 3.59 ± 0.48; under setting [2], 3.68 ± 0.26.

With RQSLEGLSVRSVFFGVFQSFVVLL [CLPTM1], the protein stability index is, setting by setting: under setting [1], 2.04 ± 0.14; under setting [2], 1.99 ± 0.25.

For the sequence IEVFRRKRKMHLVFEYCDHTLLNE [CDKL4], the protein stability index worked out at 2.54 ± 0.98 under setting [1] and 2.33 ± 0.14 under setting [2].

Turning to RAMHLMKKREKQREQMEQMKQRIA [FAM50A], the protein stability index is, setting by setting: under setting [1], 3.27 ± 0.24; under setting [2], 3.51 ± 0.14.

Take RHRQEVLCKEMVPLAEQTPLTLQS [ZSCAN9]: the protein stability index under setting [1] amounted to 4.31 ± 0.18 and the protein stability index under setting [2] came to 4.21 ± 0.077.

As for KIREQNLQDIKTAGPQSQVLCGVV [ADD1], the protein stability index reads like this: under setting [1], 3.15 ± 0.43; under setting [2], 3.37 ± 0.24.

With NTKAEMEMSLAEELNHGRQGENQE [FATE1], the protein stability index came to 5.53 ± 0.16 under setting [1] and 5.64 ± 0.12 under setting [2].

For the sequence ARHNYNDLCPPIGRRAATALLWLS [GNAS], the protein stability index under setting [1] was determined as 2.15 ± 0.43 and the protein stability index under setting [2] is 2.27 ± 0.35.

Sequence RWLMVKIFLILIVFFIIFVVFLA [STX5] showed a protein stability index (treatment: DMSO, c terminus: native) of 4.3 ± 0.23 and a protein stability index (treatment: MLN4924 1 uM, 8 h, c terminus: native) of 4.31 ± 0.33.

ASTTRLYLRKGRGETRICKIYDSP [RAD51]: the protein stability index under setting [1] came to 2.94 ± 0.4 and the protein stability index under setting [2] is 3.19 ± 0.31.

LHSAIYAARPDVKCVVHIHTPAGA [ADD1]: the protein stability index by setting is: under setting [1], 2.24 ± 0.22; under setting [2], 2.11 ± 0.28.

In the case of QSEESDQGKYECVATNSAGTRYSA [PTPRD], the protein stability index is, setting by setting: under setting [1], 5.23 ± 0.33; under setting [2], 5.23 ± 0.34.

EDDDCDDDDDDDAQILPSRVQGGC [DRICH1]: the protein stability index runs as follows: under setting [1], 5.47 ± 0.22; under setting [2], 5.43 ± 0.11.
